# Earlier results as cited in PMC8146069.
# Columns and labels:
# [1] = molecular target: r-hirudin (recombinant hirudin, type 1 or type 2) (UniProt P01050); assay: pH profile of hirudin binding to thrombin (the measured quantity and the assay are not stated in this article)
# His57 = His57 (UniProt position 406, VLTAAHCLLYP); assay: kinetics
# Nterm16 = assay: kinetics
# [2] = 25 °C (as for the free enzyme; inferred from the preceding sentence), µ = 0.1 (inferred from the preceding sentence), thrombin with small peptide substrate bound
# [3] = 25.0 ± 0.1 °C, thrombin reacting with NPMP
# [4] = 25.0 ± 0.1 °C, thrombin reacting with PPACK (2.2 × 10^−9 M, [I] << Ki)
# [5] = 25.0 ± 0.1 °C, thrombin reacting with paraoxon
# Sequence of r-hirudin (recombinant hirudin, type 1 or type 2) (P01050 whole entry): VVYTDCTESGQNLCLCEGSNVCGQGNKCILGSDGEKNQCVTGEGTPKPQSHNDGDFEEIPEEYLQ
Substance,"pKa, His57 of thrombin [1] [pH units]",pKa (His57; [2]),"pKa (His57; 25 °C, µ = 0.1, free thrombin)",pKa (His57; [3]),pKa (His57; [4]),pKa (His57; [5]),pKa (His57; thrombin binding r-hirudin),pKa (Nterm16; [2]),"pKa (Nterm16; 25 °C, µ = 0.1, free thrombin)",pKa (Nterm16; [3]),pKa (Nterm16; [4]),pKa (Nterm16; [5])
alpha-thrombin,7.1,,,,,,,,,,,
alpha-thrombin (Homo sapiens),,6.16 ± 0.25,6.7 ± 0.3,8.0 ± 0.1,7.3 ± 0.2,7.8 ± 0.2,7.1,8.95 ± 0.41,8.4 ± 0.4,8.6 ± 0.2,8.8 ± 0.3,9.3 ± 0.3
